Data reported in the supplement of paper PMC5998384.

System: HeLa Kyoto
Assay: melting temperature (median over replicates), in situ; higher = more thermally stable
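Note: HeLa Kyoto cells synchronized by double thymidine or nocodazole block, proteins quantified by TMT10plex mass spectrometry, three independent biological replicates.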

MGST2, sequence (chain, as listed by the source): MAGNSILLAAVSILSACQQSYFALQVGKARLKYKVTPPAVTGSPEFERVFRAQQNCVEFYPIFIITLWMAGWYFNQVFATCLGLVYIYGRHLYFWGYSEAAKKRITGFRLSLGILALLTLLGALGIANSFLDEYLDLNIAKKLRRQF
DESI2, sequence (chain, as listed by the source): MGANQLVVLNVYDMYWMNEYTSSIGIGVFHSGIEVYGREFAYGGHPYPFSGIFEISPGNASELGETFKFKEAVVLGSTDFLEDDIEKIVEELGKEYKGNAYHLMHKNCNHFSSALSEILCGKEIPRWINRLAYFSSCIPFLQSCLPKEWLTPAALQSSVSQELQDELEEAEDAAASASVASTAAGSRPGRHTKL

Row | Substance | melting temperature (cell cycle stage: G1/S) [°C] | melting temperature (cell cycle stage: mitosis) [°C]
1 | DESI2 | 53.8 | 
2 | MAAAAAGAGSGPWAAQEKQFPPALLSFFIYNPRFGPREGQEENKILFYHPNEVEKNEKIRNVGLCEAIVQFTRTFSPSKPAKSLHTQKNRQFFNEPEENFWMVMVVRNPIIEKQSKDGKPVIEYQEEELLDKVYSSVLRQCYSMYKLFNGTFLKAMEDGGVKLLKERLEKFFHRYLQTLHLQSCDLLDIFGGISFFPLDKMTYLKIQSFINRMEESLNIVKYTAFLYNDQLIWSGLEQDDMRILYKYLTTSLFPRHIEPELAGRDSPIRAEMPGNLQHYGRFLTGPLNLNDPDAKCRFPKIFVNTDDTYEELHLIVYKAMSAAVCFMIDASVHPTLDFCRRLDSIVGPQLTVLASDICEQFNINKRMSGSEKEPQFKFIYFNHMNLAEKSTVHMRKTPSVSLTSVHPDLMKILGDINSDFTRVDEDEEIIVKAMSDYWVVGKKSDRRELYVILNQKNANLIEVNEEVKKLCATQFNNIFFLD [CCZ1B] | 50.9 | 51.8
3 | MAAHRKHVFVEKVLQRLFPPVPSGQGKREPQTLAVQNPPKKVTSEKVSQKHAEPLTDTGSETPTARRLYTASGPPEGYVPCWPEPSSCGSPENASSGDDTEDQDPHDQPKRRRIRKHKSKKKFKNPNNVLIEQAELEKQQSLLQEKSQRQHTDGTTISKNKKRKLKKKQQIKRKKAAGLAAKAAGVSFMYQPEDSSNEGEGVGEACEEDGVDTSEEDPTLAGEEDVKDTREEDGADASEEDLTRARQEEGADASEEDPTPAGEEDVKDAREEDGVDTIEEDLTRAGEEDGKDTREEDGADASEEDPTWAGEEEGADSGEEDGADASEEDDTITNEKAHSILNFLKSTQEMYFYDGVSRDAASAALADAAEELLDRLASHSMLPSDVSILYHMKTLLLLQDTERLKHALEMFPEHCTMPPDHARVISAFFSYWITHILPEKSSD [ERICH1] |  | 52.6
4 | MAEAEESPGDPGTASPRPLFAGLSDISISQDIPVEGEITIPMRSRIREFDSSTLNESVRNTIMRDLKAVGKKFMHVLYPRKSNTLLRDWDLWGPLILCVTLALMLQRDSADSEKDGGPQFAEVFVIVWFGAVTITLNSKLLGGNISFFQSLCVLGYCILPLTVAMLICRLVLLADPGPVNFMVRLFVVIVMFAWSIVASTAFLADSQPPNRRALAVYPVFLFYFVISWMILTFTPQ [YIPF6] | 55 | 54.6
5 | MAGAGSAAVSGAGTPVAGPTGRDLFAEGLLEFLRPAVQQLDSHVHAVRESQVELREQIDNLATELCRINEDQKVALDLDPYVKKLLNARRRVVLVNNILQNAQERLRRLNHSVAKETARRRAMLDSGIYPPGSPGK [SNAPIN] | 53 | 54.5
6 | MAGLEVLFASAAPAITCRQDALVCFLHWEVVTHGYFGLGVGDQPGPNDKKSELLPAGWNNNKDLYVLRYEYKDGSRKLLVKAITVESSMILNVLEYGSQQVADLTLNLDDYIDAEHLGDFHRTYKNSEELRSRIVSGIITPIHEQWEKANVSSPHREFPPATAREVDPLRIPPHHPHTSRQPPWCDPLGPFVVGGEDLDPFGPRRGGMIVDPLRSGFPRALIDPSSGLPNRLPPGAVPPGARFDPFGPIGTSPPGPNPDHLPPPGYDDMYL [PSMF1] |  | 53
7 | MAPRALPGSAVLAAAVFVGGAVSSPLVAPDNGSSRTLHSRTETTPSPSNDTGNGHPEYIAYALVPVFFIMGLFGVLICHLLKKKGYRCTTEAEQDIEEEKVEKIELNDSVNENSDTVGQIVHYIMKNEANADVLKAMVADNSLYDPESPVTPSTPGSPPVSPGPLSPGGTPGKHVCGHHLHTVGGVVERDVCHRCRHKRWHFIKPTNKSRESRPRRQGEVTVLSVGRFRVTKVEHKSNQKERRSLMSVSGAETVNGEVPATPVKRERSGTE [RELL1] | 54.7 | 
8 | MAQEVDTAQGAEMRRGAGAARGRASWCWALALLWLAVVPGWSRVSGIPSRRHWPVPYKRFDFRPKPDPYCQAKYTFCPTGSPIPVMEGDDDIEVFRLQAPVWEFKYGDLLGHLKIMHDAIGFRSTLTGKNYTMEWYELFQLGNCTFPHLRPEMDAPFWCNQGAACFFEGIDDVHWKENGTLVQVATISGNMFNQMAKWVKQDNETGIYYETWNVKASPEKGAETWFDSYDCSKFVLRTFNKLAEFGAEFKNIETNYTRIFLYSGEPTYLGNETSVFGPTGNKTLGLAIKRFYYPFKPHLPTKEFLLSLLQIFDAVIVHKQFYLFYNFEYWFLPMKFPFIKITYEEIPLPIRNKTLSGL [CLN5] |  | 53.8
9 | MASGGGGGNTGAGGGPGMGLSLGLGLGLSLGMSEATSEAEEEAATAEAVGRLATTLWLRLRGWEAVLAAAQRLLVWEKPLHSLVTAAALNGLFWLLSSSSLRPFFLLSVSLLAYFLLDLWQPRFLPDVSASSPEEPHSDSEGAGSGARPHLLSVPELCRYLAESWLTFQIHLQELLQYKRQNPAQFCVRVCSGCAVLAVLGHYVPGIMISYIVLLSILLWPLVVYHELIQRMYTRLEPLLMQLDYSMKAEANALHHKHDKRKRQGKNAPPGGDEPLAETESESEAELAGFSPVVDVKKTALALAITDSELSDEEASILESGGFSVSRATTPQLTDVSEDLDQQSLPSEPEETLSRDLGEGEEGELAPPEDLLGRPQALSRQALDSEEEEEDVAAKETLLRLSSPLHFVNTHFNGAGSPPDGVKCSPGGPVETLSPETVSGGLTALPGTLSPPLCLVGSDPAPSPSILPPVPQDSPQPLPAPEEEEALTTEDFELLDQGELEQLNAELGLEPETPPKPPDAPPLGPDIHSLVQSDQEAQAVAEP [FAM134A] |  | 55.2
10 | MASLKCSTVVCVICLEKPKYRCPACRVPYCSVVCFRKHKEQCNPETRPVEKKIRSALPTKTVKPVENKDDDDSIADFLNSDEEEDRVSLQNLKNLGESATLRSLLLNPHLRQLMVNLDQGEDKAKLMRAYMQEPLFVEFADCCLGIVEPSQNEES [ZNHIT3] | 50.4 | 52.7
11 | MATQAKRPRVAGPVDGGDLDPVACFLSWCRRVGLELSPKVSERAGGRRTRGGARAALTSPPAQVAVSRQGTVAGYGMVARESVQAGELLFVVPRAALLSQHTCSIGGLLERERVALQSQSGWVPLLLALLHELQAPASRWRPYFALWPELGRLEHPMFWPEEERRCLLQGTGVPEAVEKDLANIRSEYQSIVLPFMEAHPDLFSLRVRSLELYHQLVALVMAYSFQEPLEEEEDEKEPNSPVMVPAADILNHLANHNANLEYSANCLRMVATQPIPKGHEIFNTYGQMANWQLIHMYGFVEPYPDNTDDTADIQMVTVREAALQGTKTEAERHLVYERWDFLCKLEMVGEEGAFVIGREEVLTEEELTTTLKVLCMPAEEFRELKDQDGGGDDKREEGSLTITNIPKLKASWRQLLQNSVLLTLQTYATDLKTDQGLLSNKEVYAKLSWREQQALQVRYGQKMILHQLLELTS [SETD6] |  | 50.4
12 | MEADGDGEELARLRSVFAACDANRSGRLEREEFRALCTELRVRPADAEAVFQRLDADRDGAITFQEFARGFLGSLRGGRRRDWGPLDPAPAVSEAGPETHDSEEDEGDEDAAAALATSCGPASPGRAWQDFQARLGDEAKFIPREEQVSTLYQNINLVEPRLIQPYEHVIKNFIREIRLQSTEMENLAIAVKRAQDKAAMQLSELEEEMDQRIQAAEHKTRKDEKRKAEEALSDLRRQYETEVGDLQVTIKKLRKLEEQSKRVSQKEDVAALKKQIYDLSMENQKVKKDLLEAQTNIAFLQSELDALKSDYADQSLNTERDLEIIRAYTEDRNSLERQIEILQTANRKLHDSNDGLRSALENSYSKFNRSLHINNISPGNTISRSSPKFIGHSPQPLGYDRSSRSSYVDEDCDSLALCDPLQRTNCEVDSLPESCFDSGLSTLRDPNEYDSEVEYKHQRGFQRSHGVQESFGGDASDTDVPDIRDEETFGLEDVASVLDWKPQGSVSEGSIVSSSRKPISALSPQTDLVDDNAKSFSSQKAYKIVLAGDAAVGKSSFLMRLCKNEFRENISATLGVDFQMKTLIVDGERTVLQLWDTAGQERFRSIAKSYFRKADGVLLLYDVTCEKSFLNIREWVDMIEDAAHETVPIMLVGNKADIRDTAATEGQKCVPGHFGEKLAMTYGALFCETSAKDGSNIVEAVLHLAREVKKRTDKDDSRSITNLTGTNSKKSPQMKNCCNG [RASEF] | 49.8 | 50
13 | MELIQDTSRPPLEYVKGVPLIKYFAEALGPLQSFQARPDDLLINTYPKSGTTWVSQILDMIYQGGDLEKCNRAPIYVRVPFLEVNDPGEPSGLETLKDTPPPRLIKSHLPLALLPQTLLDQKVKVVYVARNPKDVAVSYYHFHRMEKAHPEPGTWDSFLEKFMAGEVSYGSWYQHVQEWWELSRTHPVLYLFYEDMKENPKREIQKILEFVGRSLPEETMDFMVQHTSFKEMKKNPMTNYTTVPQELMDHSISPFMRKGMAGDWKTTFTVAQNERFDADYAEKMAGCSLSFRSEL [SULT1A4] | 48.5 | 49.2
14 | MFAKGKGSAVPSDGQAREKLALYVYEYLLHVGAQKSAQTFLSEIRWEKNITLGEPPGFLHSWWCVFWDLYCAAPERRDTCEHSSEAKAFHDYSAAAAPSPVLGNIPPNDGMPGGPIPPGFFQGPPGSQPSPHAQPPPHNPSSMMGPHSQPFMSPRYAGGPRPPIRMGNQPPGGVPGTQPLLPNSMDPTRQQGHPNMGGSMQRMNPPRGMGPMGPGPQNYGSGMRPPPNSLGPAMPGINMGPGAGRPWPNPNSANSIPYSSSSPGTYVGPPGGGGPPGTPIMPSPADSTNSSDNIYTMINPVPPGGSRSNFPMGPGSDGPMGGMGGMEPHHMNGSLGSGDIDGLPKNSPNNISGISNPPGTPRDDGELGGNFLHSFQNDNYSPSMTMSV [SSBP3] | 52.4 | 
15 | MGDEKDSWKVKTLDEILQEKKRRKEQEEKAEIKRLKNSDDRDSKRDSLEEGELRDHRMEITIRNSPYRREDSMEDRGEEDDSLAIKPPQQMSRKEKAHHRKDEKRKEKRRHRSHSAEGGKHARVKEKEREHERRKRHREEQDKARREWERQKRREMAREHSRRERDRLEQLERKRERERKMREQQKEQREQKERERRAEERRKEREARREVSAHHRTMREDYSDKVKASHWSRSPPRPPRERFELGDGRKPGEARPAPAQKPAQLKEEKMEERDLLSDLQDISDSERKTSSAESSSAESGSGSEEEEEEEEEEEEEGSTSEESEEEEEEEEEEEEETGSNSEEASEQSAEEVSEEEMSEDEERENENHLLVVPESRFDRDSGESEEAEEEVGEGTPQSSALTEGDYVPDSPALSPIELKQELPKYLPALQGCRSVEEFQCLNRIEEGTYGVVYRAKDKKTDEIVALKRLKMEKEKEGFPITSLREINTILKAQHPNIVTVREIVVGSNMDKIYIVMNYVEHDLKSLMETMKQPFLPGEVKTLMIQLLRGVKHLHDNWILHRDLKTSNLLLSHAGILKVGDFGLAREYGSPLKAYTPVVVTLWYRAPELLLGAKEYSTAVDMWSVGCIFGELLTQKPLFPGKSEIDQINKVFKDLGTPSEKIWPGYSELPAVKKMTFSEHPYNNLRKRFGALLSDQGFDLMNKFLTYFPGRRISAEDGLKHEYFRETPLPIDPSMFPTWPAKSEQQRVKRGTSPRPPEGGLGYSQLGDDDLKETGFHLTTTNQGASAAGPGFSLKF [CDK11B] | 46.5 | 50.3
16 | MGLELFLDLVSQPSRAVYIFAKKNGIPLELRTVDLVKGQHKSKEFLQINSLGKLPTLKDGDFILTESSAILIYLSCKYQTPDHWYPSDLQARARVHEYLGWHADCIRGTFGIPLWVQVLGPLIGVQVPKEKVERNRTAMDQALQWLEDKFLGDRPFLAGQQVTLADLMALEELMQPVALGYELFEGRPRLAAWRGRVEAFLGAELCQEAHSIILSILEQAAKKTLPTPSPEAYQAMLLRIARIP [GSTT2] | 54.9 | 55.1
17 | MGST2 | 54.3 | 
